The text below walks through data of publication PMC7550751, “Application of Force to a Syndecan-4 Containing Complex With Thy-1–αVβ3 Integrin Accelerates Neurite Retraction” (Frontiers in Molecular Biosciences, 2020).

Where a chain is given by its changes, count along the chain named.

In assay [1] the target is Commercially purified human Syndecan (ectodomain)-4-Fc (UniProt P31431). The experiment in a line: optical tweezers (miniTweezers) force-ramp adhesion frequency assay. Particulars: loading rate 10 pN/s; Hepes buffer (10 mM Hepes, pH 7.4) containing 100 mM NaCl and 1 mM MgCl2 at 25°C; parent: est. 0.79; read off a plot.
The target in assay [2] is T1, Commercially purified human Syndecan (ectodomain)-4-Fc, P31431.
T1 chain: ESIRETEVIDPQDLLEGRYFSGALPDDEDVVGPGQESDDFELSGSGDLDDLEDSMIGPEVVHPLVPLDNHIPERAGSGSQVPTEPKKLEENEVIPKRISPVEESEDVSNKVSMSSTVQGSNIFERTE
The assay is described as above. Particulars: chain shown with the change; loading rate 10 pN/s; Hepes buffer (10 mM Hepes, pH 7.4) containing 100 mM NaCl and 1 mM MgCl2 at 25°C; parent: est. 0.79; read off a plot.

The target of a further assay is T2, Thy-1-Fc wild type (UniProt P01831 20-131).
T2 construct: In the functional rows m1 stands for Thy-1 on the surface of CAD neuronal cells; also called Thy-1(RLD)-Fc; CD90; source: purified; obtained as previously reported (Schneider, 2000; Leyton et al., 2001)
T2 sequence (looked up): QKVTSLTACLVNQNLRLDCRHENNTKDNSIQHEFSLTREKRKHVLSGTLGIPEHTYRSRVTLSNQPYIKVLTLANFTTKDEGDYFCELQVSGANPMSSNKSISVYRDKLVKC
The experiment in a line: optical tweezers force spectroscopy (constant-force bond lifetime assay); miniTweezers; Thy-1-Fc on the 2.1 μm bead held by a micropipette; αVβ3-Fc, Syndecan-4-Fc or both on the 3.1 μm trapped bead (controls with TRAIL-R2-Fc added); constant forces 10, 20, 30, 40 and 50 pN; lifetimes fitted to the Bell model for values at zero force; 10 mM Hepes pH 7.4, 100 mM NaCl, 1 mM MgCl2, 25°C. Particulars: both partners purified.

Turning to “Thy-1-Fc wild type (from UniProt P01831) AEAAA”, the other: adhesion frequency in assay [1] was determined as 0.4.

B1: Thy-1-Fc wild type, P01831 RLE (protein)
chain: T2 sequence (looked up) with D18E
For the molecule B1, the other: adhesion frequency in assay [2] was 0.81.

B2: Recombinant αVβ3-Fc integrin (Fc fusion)
chain 1: FNLDVDSPAEYSGPEGSYFGFAVDFFVPSASSRMFLLVGAPKANTTQPGIVEGGQVLKCDWSSTRRCQPIEFDATGNRDYAKDDPLEFKSHQWFGASVRSKQDKILACAPLYHWRTEMKQEREPVGTCFLQDGTKTVEYAPCRSQDIDADGQGFCQGGFSIDFTKADRVLLGGPGSFYWQGQLISDQVAEIVSKYDPNVYSIKYNNQLATRTAQAIFDDSYLGYSVAVGDFNGDGIDDFVSGVPRAARTLGMVYIYDGKNMSSLYNFTGEQMAAYFGFSVAATDINGDDYADVFIGAPLFMDRGSDGKLQEVGQVSVSLQRASGDFQTTKLNGFEVFARFGSAIAPLGDLDQDGFNDIAIAAPYGGEDKKGIVYIFNGRSTGLNAVPSQILEGQWAARSMPPSFGYSMKGATDIDKNGYPDLIVGAFGVDRAILYRARPVITVNAGLEVYPSILNQDNKTCSLPGTALKVSCFNVRFCLKADGKGVLPRKLNFQVELLLDKLKQKGAIRRALFLYSRSPSHSKNMTISRGGLMQCEELIAYLRDESEFRDKLTPITIFMEYRLDYRTAADTTGLQPILNQFTPANISRQAHILLDCGEDNVCKPKLEVSVDSDQKKIYIGDDNPLTLIVKAQNQGEGAYEAELIVSIPLQADFIGVVRNNEALARLSCAFKTENQTRQVVCDLGNPMKAGTQLLAGLRFSVHQQSEMDTSVKFDLQIQSSNLFDKVSPVVSHKVDLAVLAAVEIRGVSSPDHVFLPIPNWEHKENPETEEDVGPVVQHIYELRNNGPSSFSKAMLHLQWPYKYNNNTLLYILHYDIDGPMNCTSDMEINPLRIKISSLQTTEKNDTVAGQGERDHLITKRDLALSEGDIHTLGCGVAQCLKIVCQVGRLDRGKSAILYVKSLLWTETFMNKENQNHSYSLKSSASFNVIEFPYKNLPIEDITNSTLVTTNVTWGIQPAPMPV
chain 2: GPNICTTRGVSSCQQCLAVSPMCAWCSDEALPLGSPRCDLKENLLKDNCAPESIEFPVSEARVLEDRPLSDKGSGDSSQVTQVSPQRIALRLRPDDSKNFSIQVRQVEDYPVDIYYLMDLSYSMKDDLWSIQNLGTKLATQMRKLTSNLRIGFGAFVDKPVSPYMYISPPEALENPCYDMKTTCLPMFGYKHVLTLTDQVTRFNEEVKKQSVSRNRDAPEGGFDAIMQATVCDEKIGWRNDASHLLVFTTDAKTHIALDGRLAGIVQPNDGQCHVGSDNHYSASTTMDYPSLGLMTEKLSQKNINLIFAVTENVVNLYQNYSELIPGTTVGVLSMDSSNVLQLIVDAYGKIRSKVELEVRDLPEELSLSFNATCLNNEVIPGLKSCMGLKIGDTVSFSIEAKVRGCPQEKEKSFTIKPVGFKDSLIVQVTFDCDCACQAQAEPNSHRCNNGNGTFECGVCRCGPGWLGSQCECSEEDYRPSQQDECSPREGQPVCSQRGECLCGQCVCHSSDFGKITGKYCECDDFSCVRYKGEMCSGHGQCSCGDCLCDSDWTGYYCNCTTRTDTCMSSNGLLCSGRGKCECGSCVCIQPGSYGDTCEKCPTCPDACTFKKECVECKKFDRGALHDENTCNRYCRDEIESVKELKDTGKDAVNCTYKNEDDCVVRFQYYEDSSGKSILYVVEEPECPKGPD
notes: integrin αV, ectodomain; integrin β3, ectodomain; Construct: Burgos-Bravo et al., 2018; also called αVβ3 integrin; source: HEK293T, transiently transfected, secreted into serum-free medium; purified as published (Burgos-Bravo et al., 2018) for optical tweezers; used as medium in the neurite retraction assay
On to B2, for which the “bond lifetime at zero force (τ0)” value in the assay with Thy-1-Fc wild type is 6.79 ± 1.49 s.

B3: αVβ3-Fc + Syndecan-4-Fc (both on one bead) (complex)
chain 1: B2 chain 1
chain 2: B2 chain 2
chain 3: T1 chain
notes: integrin αV, ectodomain, as in m5; integrin β3, ectodomain, as in m5; Syndecan-4, human, ectodomain, as in m6; Not a complex formed beforehand: m5 and m6 were put together on bead 2 and met Thy-1-Fc on bead 1; also called αVβ3 integrin + Syndecan-4; source: αVβ3-Fc: HEK293T, purified; Syndecan-4-Fc: commercially purified; both attached to one protein G-coated bead; copies: + +
Regarding B3, in the assay with Thy-1-Fc wild type, the “bond lifetime at zero force (τ0)” value came out at 11.6 ± 1.34 s.

B4: Commercially purified human Syndecan (ectodomain)-4-Fc (Fc fusion, UniProt P31431 19-145, looked up)
chain: T1 chain
notes: Syndecan-4, human, ectodomain; Heparan sulfate proteoglycan; also called Syndecan-4-Fc; Synd-4-Fc
In the case of B4, in the assay with Thy-1-Fc wild type, the “bond lifetime at zero force (τ0)” value was found to be 3.06 ± 0.22 s.
